The text below walks through data of the RNAGym collection of RNA variant scans (doi:10.7554/elife.80360).

Sequences and labels used below:
B1: HDV Ribozyme (parent)
chain: GGCCGGCAUGGUCCCAGCCUCCUCGCUGGCGCCGGCUGGGCAACAUUCCGAGGGGACCGUCCCCUCGGUAAUGGCGAAUGGGACCCA

In the series the parent is B1. The experiment in a line: self-cleavage, relative activity (ratio to wild type); higher = more cleavage; co-transcriptional.
In the case of GGCCGGCAUGUUCCCAGCCUCCUCGCUGGCGCCGGCUGGGCAACAUUCCGAGGGGACCGUCCCCUCGGUAAUGGCGAAUGAGACCCA [G11U G81A], the self-cleavage came out at 0.0623.

For the variant GGCCGGCAUGGUCCCAGCCUCCUCGCUGGCGCCGGCUGGGCAACAUUCCGAGGGAACCGUCCCCUCGGUAAUGGCGAAUCGGACCCA [G55A G80C], the self-cleavage stood at 0.138.

As to GGCCGGCAUGGUUCCAGCCUCCUCGCUGGCGCGGGCUGGGCAACAUUCCGAGGGGACCGUCCCCUCGGUAAUGGCGAAUGGGACCCA [C13U C33G], the self-cleavage is 0.252.

On to GGCCGGCAUGCUCCCAGCCUACUCGCUGGCGCCGGCUGGGCAACAUUCCGAGGGGACCGUCCCCUCGGUAAUGGCGAAUGGGACCCA [G11C C21A], for which the self-cleavage stood at 0.0755.

Consider GGCCGGCAUGGUCCGAGCCUCCUCGCUGGCGCCGGCUGGGCAACAUUCCGAGGGGACCGUCCCCUCGGUAAUGGCGAAUGGGAUCCA [C15G C84U], for which the self-cleavage was 0.302.

Regarding GGCCGCCAUGGUCCCAGCCUCCUCGCUGGCGCCGGCUGGGCAACAUUCCGGGGGGACCGUCCCCUCGGUAAUGGCGAAUGGGACCCA [G6C A51G], the self-cleavage was 0.222.

On to GGCCGGCAUGGUCCCAGCCUCCUCGCUGGCGCCGGCUGGGCAACAUUCCGAGGGGACCGUCCCCUCGGUCAUGGCGAAUGGGCCCCA [A70C A83C], for which the self-cleavage was 0.434.

Take GGCCGGCAUGGUCCCAGCCUCCUCGCUGGCGCCGGCUGGGCAACAUUCCGGGGGGACCGUCCCCUCGGUAAUGGCGAAUGGGACCCA [A51G]: the self-cleavage is 0.948.

As to GGCCGGCAUGGUCCCAGCCUCCUCGCUGGCGACGGCUGGGCAACAUUCCGAGGGGACCGUCCCCUCGGUCAUGGCGAAUGGGACCCA [C32A A70C], the self-cleavage was determined as 0.101.

With GUCCGGCAUGGUCCCAGCCUCCUCGCUGGCGCCGGCUGGGCAACAUUCCGUGGGGACCGUCCCCUCGGUAAUGGCGAAUGGGACCCA [G2U A51U], the self-cleavage was 0.0799.

In the case of GGCCGGCAUGGUCCCAGCCUCCUCGCUGGCGCUGGCUGGGCAACAUUCCGAGGGGACCGUCCCCUCGGCAAUGGCGAAUGGGACCCA [C33U U69C], the self-cleavage was determined as 0.956.

In the case of GGCCGGCAUGGUCCCAACCUCCUCGCUGGCGCCGGCUGGGCAACAUUCCGAGGGGACCGUCCCCUCGAUAAUGGCGAAUGGGACCCA [G17A G68A], the self-cleavage was 0.76.

As to GGCCGGCAUGGUCCCAGCCUCCUCGCUGGCGCCGGCUGGGCUACAUUCCGAGUGGACCGUCCCCUCGGUAAUGGCGAAUGGGACCCA [A42U G53U], the self-cleavage stood at 0.698.

In the case of GGCCGGCAUGGUCCCAGCCUCCUCGCUGGCGCCGGCUGGGCAACAUUCCGAGGGGACCGUCCCCUCAGUAUUGGCGAAUGGGACCCA [G67A A71U], the self-cleavage is 0.725.

Take GGCCGGCAUGGUCCUAGCCUCCUCGCUGGCGCCGGCUGGGCAACAUUCCGAGGGGACCGUCCCCUCGGUAAUGGCGAAUGGGACCCU [C15U A87U]: the self-cleavage was 0.993.

GGCCGGCAUGGUCCCAGCCUCCUCGCUGGCGCCGGCUGGGCAACAUUCCGAGGGGACCGUCCCCUCGGUAAUGGCGAUUGGGACCUA [A78U C86U]: the self-cleavage turned out to be 0.309.

As to GGCCGGCAUGGACCCAGCCUCCUCGCUGGCGCCGACUGGGCAACAUUCCGAGGGGACCGUCCCCUCGGUAAUGGCGAAUGGGACCCA [U12A G35A], the self-cleavage stood at 0.0875.

Turning to GGCCGGCAUGGUCCCAGCCUCCUCGAUGGCGCCGGCUGGGCAACAAUCCGAGGGGACCGUCCCCUCGGUAAUGGCGAAUGGGACCCA [C26A U46A], the self-cleavage came to 0.77.

GGCCGGCAUGUUCCCAGCCUCCUCGCUGGCGCCGGCUGGGCAACAUUCCGAGGGGACCGUGCCCUCGGUAAUGGCGAAUGGGACCCA [G11U C61G]: the self-cleavage was 0.315.

GGCCGGAAUGGUCCCAGCCUCCUCACUGGCGCCGGCUGGGCAACAUUCCGAGGGGACCGUCCCCUCGGUAAUGGCGAAUGGGACCCA [C7A G25A]: the self-cleavage was 0.175.

For the variant GGCCGGCAUGGUCCCAGCCUCCUCGCUGGCGCCGGCUGGUCAACAUUCCGAGGGGACCGUCCCCUCGGUAAUGGCGAAUGGGAGCCA [G40U C84G], the self-cleavage was 0.354.

GGCCGGCAUGGUCCCAGUCUCCUCGCUGGCGCCGGCUGGGCAACAUUCCGAGGGGACCGUCCCCUCGGUAAUGGCGAAUGGGAGCCA [C18U C84G]: the self-cleavage stood at 0.308.

As to GGCCGGCAUGGUCCCAGCCUCCUCGCUGGCCCAGGCUGGGCAACAUUCCGAGGGGACCGUCCCCUCGGUAAUGGCGAAUGGGACCCA [G31C C33A], the self-cleavage turned out to be 0.0875.

As for GGCCGGCAUGGUCCCAGCCUCCUCGCUGGCGCCGGCUGGGCAACAUGCCGAGGAGACCGUCCCCUCGGUAAUGGCGAAUGGGACCCA [U47G G54A], the self-cleavage came out at 1.18.

Consider GGCCGGCAUGGUCCCAGCCUCCGCGCUGGCGCCGGCUGGGCAACAUUCCGAGGGGACCGUCCCCUCGGUAAUGGCGAAUGGGACACA [U23G C85A], for which the self-cleavage was determined as 0.787.

Turning to GGCCGGCAUGGUCCCAGACUCCUCGCUGGCGCCGGCUGGGCAACAUUCCGAGGGGUCCGUCCCCUCGGUAAUGGCGAAUGGGACCCA [C18A A56U], the self-cleavage turned out to be 0.222.

Turning to GGCCGGCGUGGUCCCAGCCUCCUCGCUGGCGCCUGCUGGGCAACAUUCCGAGGGGACCGUCCCCUCGGUAAUGGCGAAUGGGACCCA [A8G G34U], the self-cleavage stood at 0.429.

Take GUCCGGCAUGGUCCCAGCCUCCUCGCUGGCGCCGGCUGGGCAACAUUCCGAGGGGACCGUCCCCUGGGUAAUGGCGAAUGGGACCCA [G2U C66G]: the self-cleavage stood at 0.0198.

For the variant GGCCCGCAUGGUCCCAGCCUCCUCGCUGGCGCCGGCUGGGCAACAUUCCGAGGGGACCGUCCCCUCGGUAAUGGCGAGUGGGACCCA [G5C A78G], the self-cleavage came out at 0.

For the variant GGCCGGCAUGGUCCCAGCCUCCUCGCUGGCGCAGGCUGGGCAACAUUCCAAGGGGACCGUCCCCUCGGUAAUGGCGAAUGGGACCCA [C33A G50A], the self-cleavage was 0.215.

As for GGCCGGCAUGGUCCCAGCCUCCACGCUGGCGCCGGCUUGGCAACAUUCCGAGGGGACCGUCCCCUCGGUAAUGGCGAAUGGGACCCA [U23A G38U], the self-cleavage was found to be 0.208.

Consider GGCCAGCAUGGUCCCAGCCUCCUCGCUGGCGCCGGCUGGGCAACAUUCCGAGGGGACCGUCCCCUCGGUAAUCGCGAAUGGGACCCA [G5A G73C], for which the self-cleavage turned out to be 0.268.
